Experimental data reported in article PMC11098746 (2024).

What was measured:
Assay in all cases: AVEXIS screen signal:noise (double-corrected)
ADP103 = target: T1, ADP103
T1 chain: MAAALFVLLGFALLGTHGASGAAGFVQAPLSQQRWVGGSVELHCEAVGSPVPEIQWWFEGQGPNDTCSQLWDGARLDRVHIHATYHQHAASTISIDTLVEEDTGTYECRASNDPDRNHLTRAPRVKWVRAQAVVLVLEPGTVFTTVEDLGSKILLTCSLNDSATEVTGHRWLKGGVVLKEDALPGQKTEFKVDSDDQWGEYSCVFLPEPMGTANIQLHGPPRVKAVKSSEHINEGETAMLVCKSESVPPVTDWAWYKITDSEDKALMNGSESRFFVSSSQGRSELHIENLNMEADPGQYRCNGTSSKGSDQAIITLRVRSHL

ADP144 = target: T2, ADP144
T2 chain: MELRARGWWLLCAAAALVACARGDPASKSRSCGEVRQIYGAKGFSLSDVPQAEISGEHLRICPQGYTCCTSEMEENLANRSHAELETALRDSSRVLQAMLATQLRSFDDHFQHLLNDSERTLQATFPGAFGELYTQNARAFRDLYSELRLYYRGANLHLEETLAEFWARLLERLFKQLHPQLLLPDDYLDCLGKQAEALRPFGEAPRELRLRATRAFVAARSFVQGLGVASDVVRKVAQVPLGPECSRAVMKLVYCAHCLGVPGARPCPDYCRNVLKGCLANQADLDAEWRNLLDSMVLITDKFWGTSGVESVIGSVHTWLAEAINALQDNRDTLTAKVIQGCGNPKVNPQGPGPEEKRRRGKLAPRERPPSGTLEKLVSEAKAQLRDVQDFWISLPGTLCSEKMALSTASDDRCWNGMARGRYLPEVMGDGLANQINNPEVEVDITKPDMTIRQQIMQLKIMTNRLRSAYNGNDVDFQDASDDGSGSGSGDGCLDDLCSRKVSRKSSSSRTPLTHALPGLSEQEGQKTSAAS

ADP390 = target: ADP390
ADP158 = target: ADP158

B1: ADP180 (protein)
chain: RGNQISKCVFYDKRNKDLKQVFYVPTNDVNMYKETIRKLLSREISLLEEPLNENSDSHNMANKKNVANFEEIKKNDENNNRKRKEMEEKLKYIEKYRNYAKGVLKNVEFKCENVDDLKSKVKCNLCVYTEIVNNKHIRQGQIIQIFMNECMYGFYYYDNINQYTQNNEYNNKALKDYNSAQKLDDIYFNIAKDISEGNVNGINFFKQQSSKYHPVCYVTE
modifications: bait human Fc-tagged dimer; N-glycosylation sequons mutated in Plasmodium baits
- binding score (ADP103): 9.97
- binding score (ADP144): 20

B2: ADP253 (protein)
chain: ANAFYVDNGQEMLIKEKEHYSSDSEHHKEESASIGNLNVFFPAENYHFSTYMGFDRRSFLPSNEIELEKMIGANFANEVKNYCSRQNVAQKIGDYLNIAFEYSRALEELRSEMILDFNKRKHLTNNADDTILHMIENAEKRKNDPNYKEAYENKDYANNANIFMNEYSNPLSTKYNKILKEYLCHLFVNNPGTKPLERLYYNSLALGELVEPIRNKFKSLASSTIDFNYEIHMASASNIYLLAHFLVLSLAYLSYNEYFTTGTKSFYSLPTILTANSDNSFFMLNEMCNIHYNPNKNFKKDITFIPIESRPKRTTTFYGERRLTCDLLELVLNAIMLININEINNVFSNNNVDGYENSLSFSHNAIRIFSKVCPKINNDNVLKCEFEESSLYNPKIIKNDASEKSSQKNLKKAFDLLRTYAEIEGHSAEGSTSPYYVSLILDDMKYNDFYKYTLWYEPRELIYGDIRGMQMKKKKKTKYIYNDFMKKSTQLKKKLIKNDLKYNLKSKGLVFLYAMIDKYGSILNKAQKAKVQFLNSASSIRYYLYLNKVIFKSAKTYLDIMKRVLEELQTSTNTPLKFLVRGNYIENINNIARNDNMFYANLFVLTALSRRDPVKDYYNDKRKMLSATLAEKFANSASMLIPHKLRKLVVSMKKGLLKKKLLTSLAKVKLLQHIPAHMLENIASSIRFTTHTIATMQIIQNAKYMSKHNFAQYDSKGMLARQIFTKGGFAEYADNLMAKWFSKGFEEYKREQIENFKMENSIDSELKDSEREDENDASEESAKKKLQDLQLEEREKMKKENSLLFNQADKWDQFINKELVRALGLWLEFNDNPANAASFVYKVVEDSKHLLENNIDNNIIFSRTVKPTKQTAFRRFFNKILSLGNMLLRKPSFRVEHALWFGATIDIKKAFILLEKVSELHKMLNNQDESWLINEAFIEIVDHVVDLSTYKHVREPFGVARNPGMMAINPKYAELSHENRLRELQNSMCADHCSSVWKVISSFALHHLKNPDSLHTYESKFSKNSFGNKIDDKDFVHNFKMILGGDAVLHYFDNLLPKTMKKDLKAMKYGVSLTSAYSLKLTKIIFSQMQLPYLSQMFYMQAPYFGHFIGKWQKKRQQSRLKEIMSFMTLGSLSAYTLFSAMDITQQAKDIGAGPVASCFTTRMSPPQQICLNSVVNAALSTSTQSAMKCVFSV
modifications: bait human Fc-tagged dimer; N-glycosylation sequons mutated in Plasmodium baits
- binding score (ADP390): 7.2

B3: ADP167 (protein)
chain: EFKRKQKVEINSLQTNKNNDNIREEKIKGDVESQPDVDGDTCVIFSSSEGNSRNCWCPRGYILCSEEDVLDVQGKLNEIKNKHERSLVTPLWMKRLCDNSNDVGFKSMSVVIDYELAVLCKDGSNKDYADFEIIGASGYITGEEMIEEQKRNPWYVPRKCTVNNFYLCRKVENDNVNCAYTPWSDWSACKNNAQKRYRKVRRSNQNNENFCLWNDKIVPRNIMEQTRSC
modifications: bait human Fc-tagged dimer; N-glycosylation sequons mutated in Plasmodium baits
- binding score (ADP158): 19.1
